Experimental data taken from patent publication US20180044681A1.

Molecular target: EpCAM (Epithelial Cell Adhesion Molecule) (UniProt P16422)
Assay: binding to EpCAM-expressing cells; method not stated

EpCAM (Epithelial Cell Adhesion Molecule), sequence (P16422 24-314 limits assumed): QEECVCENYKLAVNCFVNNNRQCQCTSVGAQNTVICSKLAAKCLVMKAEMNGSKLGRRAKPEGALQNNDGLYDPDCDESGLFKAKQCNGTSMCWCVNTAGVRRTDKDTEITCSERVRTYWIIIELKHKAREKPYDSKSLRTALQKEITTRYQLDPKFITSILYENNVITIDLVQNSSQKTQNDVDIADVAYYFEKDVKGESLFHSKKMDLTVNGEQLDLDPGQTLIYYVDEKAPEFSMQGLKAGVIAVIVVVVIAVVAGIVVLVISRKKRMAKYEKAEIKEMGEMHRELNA

HEA125 antibody
Kd: 2.2 nM
